Data on 1 molecule can be found in patent US20250084177A1 (HUAHUI HEALTH, published 2025).

In experiment [1] the target is T1, mouse CD98 (mCD98) ECD (mouse, UniProt P10852 100-526).
T1 construct: extracellular domain; By the methods the CD98 ECDs were His6-Avi-tagged; also called murine CD98
T1 sequence (looked up): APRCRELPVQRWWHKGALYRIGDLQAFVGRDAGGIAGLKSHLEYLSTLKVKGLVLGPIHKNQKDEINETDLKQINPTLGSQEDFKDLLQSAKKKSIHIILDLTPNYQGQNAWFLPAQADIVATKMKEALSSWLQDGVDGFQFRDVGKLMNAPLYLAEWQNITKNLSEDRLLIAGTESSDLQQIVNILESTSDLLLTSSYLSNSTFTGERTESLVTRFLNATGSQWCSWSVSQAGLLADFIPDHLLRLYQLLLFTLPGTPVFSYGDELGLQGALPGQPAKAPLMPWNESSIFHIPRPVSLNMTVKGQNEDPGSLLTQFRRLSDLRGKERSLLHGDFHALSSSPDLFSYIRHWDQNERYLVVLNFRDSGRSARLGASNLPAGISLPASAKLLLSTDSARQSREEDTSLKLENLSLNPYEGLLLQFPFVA
In words: SPR (Biacore T200), antibody captured, CD98 ECD as analyte; table cells 'n.m.'. (In general: SPR reads the build-up and loss of mass on a sensor chip optically.)
Protocol: (§1) Kinetic analysis of the bindings of anti-CD98 antibodies to the ECD of CD98, and the ECD of FcγRs were performed on a Biacore T200 instrument (Biacore, GE Healthcare). Anti-hFc Ab or protein A/G (Thermo Fisher Scientific) was covalently attached to the surface of a CM5 sensor chip using an amine coupling kit (GE Healthcare). Antibodies at optimal concentrations were captured on the chip and the analytes (CD98 or FcγRs) were then injected at 2-fold serial diluted concentrations. Binding kinetics were evaluated using a 1:1 Langmuir binding model. The ka, kd, and KD values were calculated using Biacore T200 evaluation software.

Experiment [2] addresses T2, hCD98 ECD-His6-Avi (human, UniProt P08195 105-529, biotinylated by BirA ligase on the Avi tag (form used in ELISA)).
T2 construct: also called hCD98 ECD-His6-Avi-Biotin; not shown: His6-Avi tag
T2 sequence: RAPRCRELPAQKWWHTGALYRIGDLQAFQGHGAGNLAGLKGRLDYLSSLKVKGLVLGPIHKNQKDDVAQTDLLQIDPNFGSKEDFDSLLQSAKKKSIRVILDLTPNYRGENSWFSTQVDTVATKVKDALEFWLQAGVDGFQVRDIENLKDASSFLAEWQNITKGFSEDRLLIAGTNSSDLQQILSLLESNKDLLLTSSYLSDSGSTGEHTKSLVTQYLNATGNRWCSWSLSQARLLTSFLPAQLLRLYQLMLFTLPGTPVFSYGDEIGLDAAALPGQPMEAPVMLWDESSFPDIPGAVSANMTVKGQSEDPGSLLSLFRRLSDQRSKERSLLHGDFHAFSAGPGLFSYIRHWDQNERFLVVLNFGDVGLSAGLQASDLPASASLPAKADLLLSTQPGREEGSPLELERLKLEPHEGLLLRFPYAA
Put plainly: ELISA at pH 6.5, biotinylated hCD98 ECD captured on streptavidin; pH 6.5. On the technique in general: ELISA stands for enzyme-linked immunosorbent assay.

The target of experiment [3] is T2, hCD98 ECD-His6-Avi. In words: ELISA at pH 7.4, biotinylated hCD98 ECD captured on streptavidin; pH 7.4.
Protocol: For the ELISA-based analysis of antibody binding with antigen, biotinylated protein antigens were captured with streptavidin (Sigma-Aldrich) coated 96-well plates (Nunc, MaxiSorp™). Then, serially diluted antibodies were added, and detected by adding an HRP-labeled goat polyclonal anti-Human IgG Fc (Thermo Fisher Scientific).
Experiment [4] deals with T2, hCD98 ECD-His6-Avi. In words: SPR (Biacore T200), antibody captured, CD98 ECD as analyte, 1:1 Langmuir model.
Protocol: as §1
In experiment [5] the target is T3, HEK293T-mCD98 (Mus musculus, UniProt P10852).
T3 construct: full length, on cells or tissue; Cell-surface counterpart of m7 (the soluble mCD98 ECD), as m5 is of m4; also called mouse CD98 (mCD98) on cells; CD98 of C57BL/6 kidney and leukocytes
T3 sequence (CD98 heavy chain, looked up): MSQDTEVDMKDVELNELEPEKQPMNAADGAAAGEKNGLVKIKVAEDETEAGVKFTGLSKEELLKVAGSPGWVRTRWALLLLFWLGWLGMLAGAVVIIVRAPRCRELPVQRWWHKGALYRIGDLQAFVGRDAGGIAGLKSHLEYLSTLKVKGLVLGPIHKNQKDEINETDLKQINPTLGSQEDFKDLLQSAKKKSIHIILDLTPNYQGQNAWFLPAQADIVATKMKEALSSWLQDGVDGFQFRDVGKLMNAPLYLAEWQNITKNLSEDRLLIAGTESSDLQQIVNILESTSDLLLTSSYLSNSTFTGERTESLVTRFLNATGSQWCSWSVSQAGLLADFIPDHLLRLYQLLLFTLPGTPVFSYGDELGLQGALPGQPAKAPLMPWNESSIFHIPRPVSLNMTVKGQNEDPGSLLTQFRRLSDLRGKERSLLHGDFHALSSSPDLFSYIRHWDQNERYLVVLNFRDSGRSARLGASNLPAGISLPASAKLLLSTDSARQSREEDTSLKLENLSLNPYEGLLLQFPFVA
In words: FACS on leukocytes of C57BL/6 mice, FITC anti-human IgG secondary.

B1: S1-F4 (antibody, V domains shown)
VH: QVQLVQSGAEVKKPGASVKVSCKASGYTFTSYYMHWVRQAPGQGLEWMGIINPSGGSTSYAQKFQGRVTMTRDTSTSTVYMELSSLRSEDTAVYYCARGYYDILTGSRPIFFDIWGQGTMVTVSS
VL: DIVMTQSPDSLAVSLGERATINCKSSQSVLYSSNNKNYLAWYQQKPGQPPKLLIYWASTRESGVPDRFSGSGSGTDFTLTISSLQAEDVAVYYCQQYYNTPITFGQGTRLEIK
notes: Obtained by VH chain shuffling of HN2-G9; also called anti-hCD98 antibody S1-F4
The term EC50 denotes the concentration needed to bring the measured effect to its halfway point. Lower therefore signals greater potency. The Kd is the free concentration of one partner at which half of the binding sites on the other are occupied at equilibrium, for simple one-to-one binding. By koff is commonly meant a measure of how fast the partners let go of each other. Low values mean a long-lived complex, high ones a short-lived complex. As usually defined, the kon is the second-order rate constant of association. The low end stands for slow association, the high end for fast association. Take B1: the binding result is given as “no binding” in experiment [1] and “no binding (tested: 10 µg/ml)” in experiment [5]. The 50% effective concentration (EC50) stood at 0.059 nM in experiment [2] and 0.046 nM in experiment [3]. The molecule also displayed a Kd in experiment [4] of 58.2 nM. This molecule yielded a koff in experiment [4] of 0.0576 s⁻¹. The on-rate (kon) in experiment [4] was 990000 M⁻¹ s⁻¹.
